From US20050118668A1 (WISCONSIN ALUMNI RESEARCH FOUNDATION, published 2005)

Molecular target: T1, T4moD (UniProt Q00459 2-103)
T1 construct: also called 11.6 kDa effector protein of the toluene-4-monooxygenase complex
T1 sequence: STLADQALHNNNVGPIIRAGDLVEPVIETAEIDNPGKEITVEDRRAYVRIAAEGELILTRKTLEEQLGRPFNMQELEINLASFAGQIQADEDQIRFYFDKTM
Experiment: fluorescence anisotropy titration of 0.97 nM apo-fACP with T4moD

B1: apo-fACP (other)
chain: STIEERVKKIIGEQLGVKQEEVTNNASFVEDLGADSLDTVELVMALEEEFDTEIPDEEAEKITTVQAAIDYINGHQA
notes: mature; also called fACP (apo form, lacking phosphopantetheine)
B1: no binding.
